“Also recorded” adds a separate entry of the source.
Tests used:
rat joint = test: Rat model of antigen-induced (BSA) arthritis, intra-articular scFv; format: in vivo
Procedure: Polymorphonuclear Leukocytes (PMN), isolated from intra-articular wash out of rats with arthritis induced by instillation of BSA (mBSA), were incubated with antibody TS-A12/22 or with an unrelated antibody, as described in example 10.
Saline solution: control without induced arthritis; mBSA: BSA-induced arthritis, untreated; unrelated: BSA-induced arthritis, treated with unrelated scFv antibody; Ts-a12/22: BSA-induced arthritis, treated with the antibody of the invention.
Histological sections of joints from rats treated with intra-articular injection of saline (A), BSA (B), BSA with TS-A12/22 (C) and BSA with the unrelated antibody (D) were analysed by immunofluorescence for the presence of complement components C3 and C9, as described in example 10.
In order to test the effect of the TS-A12/22 antibody in vivo, the influx of PMN was measured in the rat joint injected with BSA, BSA and TS-A12/22 or BSA and unrelated antibody. […] Moreover the deposition of the C3 and C9 complement components was checked on a histological section of the joint of the back paw of treated rats, by immunofluorescence with specific antisera and fluorescein-conjugated secondary antibody (FIG. 7). […] It was thus confirmed that the TS-A12/22 antibody inhibits the complement cascade at a step intermediate between C3 and C9 and therefore at the level of the conversion of C5 to C5a+C5b.

C5 = biological target: T1, C5 (Homo sapiens, UniProt P01031); test: Haemolytic assay / TCC ELISA with EAC1-3b sheep erythrocytes and C5 depleted serum; format: biochemical; conditions: FIG. 1B
T1 construct: C5 alpha and beta subunits were obtained by incubating 50 μg of C5; purchased Quidel
T1 sequence (P01031 678-1676 limits assumed): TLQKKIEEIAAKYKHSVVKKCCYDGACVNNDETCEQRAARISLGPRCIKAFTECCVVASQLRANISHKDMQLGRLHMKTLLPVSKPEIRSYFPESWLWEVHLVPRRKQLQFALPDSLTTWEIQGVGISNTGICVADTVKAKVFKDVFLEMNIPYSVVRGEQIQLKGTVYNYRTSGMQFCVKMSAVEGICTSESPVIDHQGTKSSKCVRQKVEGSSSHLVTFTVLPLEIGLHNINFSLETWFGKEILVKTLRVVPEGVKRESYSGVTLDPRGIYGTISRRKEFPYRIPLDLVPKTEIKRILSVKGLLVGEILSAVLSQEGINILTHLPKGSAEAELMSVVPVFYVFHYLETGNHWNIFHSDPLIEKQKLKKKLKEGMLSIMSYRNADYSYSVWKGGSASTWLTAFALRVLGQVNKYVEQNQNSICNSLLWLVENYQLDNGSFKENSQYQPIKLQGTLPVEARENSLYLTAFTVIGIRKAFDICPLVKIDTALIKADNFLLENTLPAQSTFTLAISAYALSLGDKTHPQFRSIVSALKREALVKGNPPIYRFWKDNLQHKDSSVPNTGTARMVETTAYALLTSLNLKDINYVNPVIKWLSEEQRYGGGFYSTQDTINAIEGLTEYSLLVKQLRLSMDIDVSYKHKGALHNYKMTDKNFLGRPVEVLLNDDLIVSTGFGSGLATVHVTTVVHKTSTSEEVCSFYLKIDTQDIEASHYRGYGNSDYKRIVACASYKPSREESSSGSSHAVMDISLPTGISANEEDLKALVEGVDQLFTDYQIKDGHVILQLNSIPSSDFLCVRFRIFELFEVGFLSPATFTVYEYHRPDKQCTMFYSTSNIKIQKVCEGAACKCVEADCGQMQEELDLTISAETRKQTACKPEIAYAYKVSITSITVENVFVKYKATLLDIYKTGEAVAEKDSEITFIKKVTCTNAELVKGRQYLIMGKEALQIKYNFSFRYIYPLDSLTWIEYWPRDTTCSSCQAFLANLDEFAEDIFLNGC
T1 sequence (P01031 19-673 partner limits assumed): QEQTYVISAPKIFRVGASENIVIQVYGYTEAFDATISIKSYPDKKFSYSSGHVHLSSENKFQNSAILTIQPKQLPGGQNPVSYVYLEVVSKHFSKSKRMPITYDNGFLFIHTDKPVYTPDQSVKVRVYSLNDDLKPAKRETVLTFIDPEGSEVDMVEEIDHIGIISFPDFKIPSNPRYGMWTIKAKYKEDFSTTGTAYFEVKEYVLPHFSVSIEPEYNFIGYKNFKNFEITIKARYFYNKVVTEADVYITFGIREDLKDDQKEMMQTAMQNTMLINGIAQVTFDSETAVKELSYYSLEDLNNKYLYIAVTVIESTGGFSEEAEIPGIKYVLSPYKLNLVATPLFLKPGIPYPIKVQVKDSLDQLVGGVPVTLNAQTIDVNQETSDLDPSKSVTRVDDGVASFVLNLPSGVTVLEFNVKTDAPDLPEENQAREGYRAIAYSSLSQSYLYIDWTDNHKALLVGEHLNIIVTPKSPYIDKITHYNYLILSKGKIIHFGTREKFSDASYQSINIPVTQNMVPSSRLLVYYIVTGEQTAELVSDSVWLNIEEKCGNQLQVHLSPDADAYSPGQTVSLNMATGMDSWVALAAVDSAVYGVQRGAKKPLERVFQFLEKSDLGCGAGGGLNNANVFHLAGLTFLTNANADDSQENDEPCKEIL
Procedure: Panel A) The ELISA assay measures the amount of C5a fragment released in the supernatant after enzymatic cleavage of C5, using antibodies anti-C5 as described in example 6. […] Sheep erythrocytes sensitised with antibodies and coated until the C3b (EAC1-3b) complement step were added to the mixture of TS-A12 or TS-A12/22 and C5, and the mixture was further incubated for 30 minutes at 37° C. (panel B).
Sheep erythrocytes (SBRC: Sheep red blood cells) were sensitised with sub-agglutinating amounts of rabbit IgM (EA). […]
The obtained anti-C5 scFv fragments were further characterised for their ability to inhibit the hemolytic activity of C5 or, in other words, to block conversion of the C5 component to C5a. […] At the end of this procedure, cell lysis was measured as percentage of the control of total lysis in distilled H2O (see FIG. 1, panel B). The inhibition of C5a and TCC production by the scFv TS-A12 and TS-A12/22 was measured by means of ELISA using the monoclonal antibody 17/5 as the capture antibody and antibody G25/2 as detection antibody according to what has been described in Opperman et al., 1991, Complement Inflamm. […] The presence of TCC was measured using antibody aE11 as the capture antibody and a biotinylated anti-C5 antibody (SIGMA-ALDRICH®) followed by alkaline phosphatase-conjugated streptavidin, as described by Tedesco et al. (1997, J Exp. Med. 185:1619).

[1] = biological target: T2, C5 hemolytic activity in rat serum (Rattus norvegicus, UniProt P08650); test: Inhibition of C5 hemolytic activity in serum; format: biochemical
T2 construct: from tissue; host or cells: rat serum
T2 sequence (P08650 679-1681 limits assumed): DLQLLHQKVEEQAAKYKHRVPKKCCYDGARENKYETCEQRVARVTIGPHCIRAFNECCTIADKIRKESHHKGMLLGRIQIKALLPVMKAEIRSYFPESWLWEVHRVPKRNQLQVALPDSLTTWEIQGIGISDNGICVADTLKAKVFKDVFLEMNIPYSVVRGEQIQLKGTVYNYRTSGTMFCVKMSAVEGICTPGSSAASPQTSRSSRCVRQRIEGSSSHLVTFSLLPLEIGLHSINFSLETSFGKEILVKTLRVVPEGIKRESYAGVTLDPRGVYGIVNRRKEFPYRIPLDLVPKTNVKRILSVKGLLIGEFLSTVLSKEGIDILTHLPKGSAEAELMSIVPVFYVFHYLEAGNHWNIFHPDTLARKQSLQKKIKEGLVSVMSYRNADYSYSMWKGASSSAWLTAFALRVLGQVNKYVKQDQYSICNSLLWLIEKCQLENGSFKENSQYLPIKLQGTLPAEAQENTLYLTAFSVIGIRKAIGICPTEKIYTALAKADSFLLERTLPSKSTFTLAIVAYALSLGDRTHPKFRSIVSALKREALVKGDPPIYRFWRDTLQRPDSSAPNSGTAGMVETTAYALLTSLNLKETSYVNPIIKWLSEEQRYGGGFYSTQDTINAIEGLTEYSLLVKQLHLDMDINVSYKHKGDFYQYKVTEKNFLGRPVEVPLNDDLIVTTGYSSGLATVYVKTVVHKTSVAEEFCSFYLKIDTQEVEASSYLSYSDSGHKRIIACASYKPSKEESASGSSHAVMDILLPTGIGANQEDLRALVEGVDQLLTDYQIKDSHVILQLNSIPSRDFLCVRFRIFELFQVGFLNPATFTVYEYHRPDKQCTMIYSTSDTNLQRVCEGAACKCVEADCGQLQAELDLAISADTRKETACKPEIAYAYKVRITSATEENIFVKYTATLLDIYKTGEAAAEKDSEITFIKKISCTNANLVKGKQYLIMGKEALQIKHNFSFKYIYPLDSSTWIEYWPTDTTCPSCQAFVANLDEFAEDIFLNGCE
T2 sequence (P08650 19-674 limits assumed): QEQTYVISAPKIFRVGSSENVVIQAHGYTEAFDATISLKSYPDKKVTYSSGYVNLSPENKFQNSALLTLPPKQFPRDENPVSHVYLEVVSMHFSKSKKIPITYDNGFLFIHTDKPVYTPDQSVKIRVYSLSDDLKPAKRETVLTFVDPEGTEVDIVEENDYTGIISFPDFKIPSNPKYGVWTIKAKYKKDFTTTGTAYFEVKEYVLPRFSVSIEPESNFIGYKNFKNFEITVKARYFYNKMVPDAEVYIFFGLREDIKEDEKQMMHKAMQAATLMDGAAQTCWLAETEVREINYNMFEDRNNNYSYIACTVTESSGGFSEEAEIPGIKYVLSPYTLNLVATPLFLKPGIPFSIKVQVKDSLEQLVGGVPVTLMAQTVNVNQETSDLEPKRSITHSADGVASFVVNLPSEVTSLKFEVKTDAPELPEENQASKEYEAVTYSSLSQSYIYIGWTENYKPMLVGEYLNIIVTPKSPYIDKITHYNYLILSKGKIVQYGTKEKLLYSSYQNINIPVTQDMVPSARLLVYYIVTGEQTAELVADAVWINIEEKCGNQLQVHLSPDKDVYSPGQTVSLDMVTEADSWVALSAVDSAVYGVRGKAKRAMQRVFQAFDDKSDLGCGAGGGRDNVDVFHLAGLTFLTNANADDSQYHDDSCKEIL
Procedure: (§1) Measurements were performed as described in example 8, using sera from human (panel A), rat (panel B), rabbit (panel C), mouse (panel D). Since the amino acid sequence corresponding to the cleavage site of convertase on the C5 alpha chain is conserved in several animal species, it was furthermore evaluated, by hemolytic assay, the ability of TS-A12/22 antibody to inhibit conversion of C5 to C5a also in rabbit, mouse and rat sera.

[2] = tested on: C5 hemolytic activity in rabbit serum; test: Inhibition of C5 hemolytic activity in serum; format: biochemical
Procedure: as §1

[3] = biological target: T3, C5 hemolytic activity in human serum (Homo sapiens, UniProt P01031); test: Inhibition of C5 hemolytic activity in serum; format: biochemical; conditions: FIG. 5A
T3 construct: from tissue; host or cells: human serum
T3 sequence (P01031 678-1676 limits assumed): as the sequence (P01031 678-1676 limits assumed) above
T3 sequence (P01031 19-673 partner limits assumed): as the sequence (P01031 19-673 partner limits assumed) above
Procedure: as §1

factor C5 = biological target: T4, factor C5 (Homo sapiens, UniProt P01031); test: Surface plasmon resonance (BIACORE 2000) on C5 immobilized on chip; format: binding; conditions: TS-A12/22 versus TS-A12 after VL chain shuffling
T4 construct: C5 alpha and beta subunits were obtained by incubating 50 μg of C5; purchased Quidel
T4 sequence (P01031 678-1676 limits assumed): as the sequence (P01031 678-1676 limits assumed) above
T4 sequence (P01031 19-673 partner limits assumed): as the sequence (P01031 19-673 partner limits assumed) above
Procedure: The binding affinity of the Tsa-12 antibody, purified by means of FPLC on Superdex 75 (Pharmacia), for factor C5 was measured by means of BIACORE™ 2000 (a system that generates unique data on the interactions between proteins and other molecules). The microchip (CM5, Biacore) was prepared by direct conjugation of the C5 antigen with amines (20 μg/ml in 10 mM Sodium Acetate pH 4.5). The final level of immobilisation turned out to be approximately 1000 RU (Resonance Units). Association and dissociation of antibody molecules from the bio-chip were measured using an optical detection system (Surface Plasmon Resonance). The analysis was carried out at 25° C., at a flow of 15 μl/min, using 4 different scFv concentrations in the range comprised between 100-300 nM, in PBS, 0.005% P20 (Biacore). The binding curves were interpolated 1:1 according to the model of Langmuir, using the dedicated software termed BIAevaluation (version 3.5) with correction for the mass transfer. In order to increase the affinity, the TS-A12 antibody was subjected to substitution (“shuffling”) of the VL light chains. For this purpose the phagemid DNA was cut with BssHII and SaII to excise the VL region. This region was substituted with all the repertoire of VL chains of a preimmune library (Sblattero, D., and Bradbury A., 2000, Nat. Biotechnol. 18:75) that was prepared with same enzymes. […]

B1: TS-A12/22: anti-C5 scFv obtained from TS-A12 by VL chain shuffling; VH3/V-48 and Vλ3/V2-14; amino acid sequence SEQ ID NO:6 (protein, listed as Homo sapiens)
scFv: DIRMTQSPDSLAVSLGERATINCKSSQSVLYSSNNKNYLAWYQQKPGQPPKLLIYWASTRESGVPDRFSGSGSGTDFTLTISSLQAEDVAVYYCQQYYSTPQLTFGGRTKVDIKSGGSTITSYNVYYTKLSSSGTQVQLQQSEGGVVQPGRSLRLSCAASGFTFSSYGMNWVRQAPGKGLEWVSYISSSSSTIYYADSVKGRFTISRDNSKNTLYLQMNSLRAEDTAVYYCARGPGMDVWGQGTTVTVSS
B1 was tested, and the “deposition of C3 in the joint (immunofluorescence)” value (rat joint; FIG. 7) was “remained unchanged; also recorded: does not affect”, the “deposition of C9 in the joint (immunofluorescence)” value (rat joint; FIG. 7) was “strongly inhibited; also recorded: significantly reduces” and the “number of PMN in the joint wash out liquid” value (rat joint; versus BSA or BSA and unrelated antibody, FIG. 6) was “significantly reduced; also recorded: drastically reduced”. The “inhibition of formation of TCC” value (C5) was “inhibit almost completely”, the “efficiency of inhibition compared with human serum” value [1] was “practically similar to that of human serum; also recorded: higher” and the “inhibition of hemolytic activity in serum” value (“inhibition … in serum” for short) ([1]; FIG. 5B) was “capable of inhibiting”. For the same molecule, the “efficiency of inhibition compared with human serum” value [2] was “higher”, the “inhibition … in serum” value ([2]; FIG. 5C) was “capable of inhibiting” and the “inhibition … in serum” value [3] was “capable of inhibiting”. For the same molecule, the “increment of molar affinity” value (factor C5) was “approximately one order of magnitude”.

— US8962819B2, “Anti-C5 alpha antibodies” (Adienne S.A., priority 2002, dated 2015)
